US11672867B2, “Protein-templated self-assembly of a covalent polymer network for intracellular trafficking and traceless release” (University of Massachusetts, priority 2017, dated 2023)

B1: ribonuclease A (protein, UniProt P61823 27-150, looked up)
Ribonuclease pancreatic: KETAAAKFERQHMDSSTSAASSSNYCNQMMKSRNLTKDRCKPVNTFVHESLADVQAVCSQKNVACKNGQTNCYQSYSTMSITDCRETGSSKYPNCAYKTTQANKHIIVACEGNPYVPVHFDASV
notes: native protein from Sigma-Aldrich, model cargo
B2: NA-RNaseA^ED: RNase A conjugated to polymer P1 and crosslinked with ethylenediamine; nanoassembly (conjugate, UniProt P61823 27-150, looked up)
Ribonuclease pancreatic: B1 Ribonuclease pancreatic
modifications: polymer P1 conjugate, ethylenediamine-crosslinked nanoassembly
B3: NA-RNaseA^PEG: RNase A conjugated to polymer P1 and crosslinked with (PEO)4-bis-amine; nanoassembly (conjugate, UniProt P61823 27-150, looked up)
Ribonuclease pancreatic: B1 Ribonuclease pancreatic
modifications: polymer P1 conjugate, PEO4-bis-amine crosslinked nanoassembly
notes: RNase A conjugated to polymer P1 and crosslinked with (PEO)4-bis-amine; nanoassembly

Experiments:
HeLa cells = assay: Cell viability with alamarBlue assay; assay type: cell-based, Human; details: 72 h
Procedure: Human cervical carcinoma (HeLa) cells were cultured in T75 cell culture flask containing Dulbecco's Modified Eagle Medium/Nutrient Mixture F-12 (DMEM/F12) in a humidified incubator with 5% CO2 at 37° C. Culture media was supplemented with 10% fetal bovine serum (FBS), 1% L-glutamine and 1% antibiotic-antimycotic (100 units/mL of penicillin, 100 μg/mL of streptomycin, and 0.25 μg/mL of Amphotericin B).
HeLa cells were seeded into 96-well tissue culture plates at a density of 5000 cells/well/100 μL sample and incubated at 37° C. After 24 h, culture media was replaced and cells were treated with different concentrations of protein-polymer conjugates and control protein samples (0.1 mg/mL to 2 mg/mL protein concentration) in 100 μL media. All samples were incubated for 6 h at 37° C., then the media was replaced and incubated for another 66 h at 37° C. Afterwards media was replaced, washed with PBS buffer for three times and each well was treated with 100 μL 10% alamarBlue in media with serum. Finally, samples were incubated for 1 h and subjected to fluorescence measurement with SpectraMax® M5 at 560 nm excitation/590 nm emission wavelength in a black 96-well flat bottomed plate. Cellular viability of the small molecule byproducts were assessed using a similar protocol.

[1] = Dynamic light scattering particle size; assay type: physicochemical; details: 1 mg/mL, phosphate buffer pH 7.4
Procedure: (§1) Dynamic light scattering (DLS) and zeta potential measurements were performed using a Malvern Nanozetasizer-ZS. All samples were diluted with phosphate buffer pH 7.4 to adjust final concentration to 1 mg/mL.

[2] = Release kinetics of proteins from nanoassemblies (DTT, SDS-PAGE); details: reducing conditions (DTT)
Procedure: 30 μL of different samples containing NA-Empty^ED, NA-Empty^PEG, NA-Lys^ED, NA-Lys^PEG, NA-RNaseA^ED, NA-RNaseA^PEG, NA-CytC^ED and NA-CytC^PEG were mixed with 10 μL of loading buffer (DTT free) and 25 μL of each sample was loaded on acrylamide gel. For release experiment, identical protein-polymer conjugate samples were treated with 10 mM DTT and incubated at 37° C. for 4 h before subjecting to acrylamide gel electrophoresis. To calculate the amount of released protein from each sample, standard curves were generated from the known concentrations of pure protein samples loaded into the gel lanes. The gel image analysis and quantification were performed with Bio-Rad Image Lab™ software.
To monitor the release kinetics of proteins (lysozyme, RNase A and cytochrome C), 30 μL of NA-Lys^ED, NA-Lys^PEG, NA-RNaseA^ED, NA-RNaseA^PEG, NA-CytC^ED and NA-CytC^PEG samples were incubated at 37° C. with requisite amounts of 10 mM DTT for different time intervals. After each incubation time, samples were collected and immediately frozen at −20° C. Finally, all samples were subjected to SDS-PAGE analysis to quantify the amount of released proteins. Encapsulation and release studies with variations in DTT concentrations and crosslinker concentrations were carried out using similar experimental protocols.

[3] = Encapsulation efficacy and loading capacity (Pierce 660 nm Protein Assay of filtrate); assay type: physicochemical; details: for Amount of protein encapsulated, μg (Initial dose = 1 mg): 10 mg P1, 1 mg protein, back-calculated from filtrate
Procedure: All nanoassemblies were evaluated for amount of protein encapsulation after conjugation and cross-linking process. Protein concentration in each sample was measured from the filtrate after crosslinking reaction and the amount of protein was back-calculated in the conjugate. An absorbance based assay (with Pierce™ 660 nm Protein Assay Reagent) was utilized to quantify the protein amount. The encapsulation efficiency (EE) and loading capacity (LC) were calculated based on the following formulas: […]

[4] = Calculation of number of proteins per particle; assay type: physicochemical; details: from DLS diameters, sphere packing efficiency ~74%
Excerpt: Calculation of Number of Proteins Per Particle: Example for NA-Lys^ED: Diameter of nanoassembly, D=9.7 nm, radius, R=4.85 nm Volume of each particle, VPPC=(4/3)πR^3=(4/3) π(4.85)^3 nm^3=477.6×10^−21 cm^3 Again, for lysozyme, diameter of protein, d=3.6 nm, radius, r=1.8 nm Volume of each protein, VLy=(4/3)πr^3=(4/3) π(1.8)^3 nm^3=24.4×10^−21 cm^3 Assuming that maximum sphere packing efficiency to be ˜74%,^ii number of lysozyme per nanoassembly to be=(477.6×10^−21/24.4×10^−21)×(0.74)=14 The results for all other nanoassemblies are summarized below: […]

[5] = Crosslinking density from released 4-nitrophenol (UV-Vis, 400 nm); assay type: physicochemical; details: adjusted for ~1% hydrolysis of control polymer
Procedure: The conjugation process and cross-linking density for the protein-polymer conjugates can be evaluated by UV-Vis spectroscopy. The amount of released 4-nitrophenol was monitored at its λmax 400 nm (measured molar extinction co-efficient≈12.14*10^3 L M^−1 cm^−1 at 400 nm). For each absorbance measurement, samples were diluted to twenty times, for e.g. 50 μL of sample was diluted 1 mL with distilled water. Cross-linking density was calculated by assuming that formation of a single chain crosslinking bond would require cleavage of two NPC units and produce two 4-nitrophenol molecules.
Ratio of NPC:PEG in the polymer, P1=50:50
Molecular weight of repeating NPC-unit=387 g/mol
Amount of polymer used=0.1 mg/mL for each absorbance measurement
From Beer-lamber's law: A=ε.c.1 and path-length=1 cm
Thus, moles of 4-nitro phenol in 1 mL solution=3.04*10^−8
This represents is 23.5 mol % of total NPC unit. As it is assumed that two 4-nitro phenol are released per crosslinking bond formation and NPC unit is 50 mol % of total polymer. Therefore, crosslinking density=23.5/2*0.5=5.9%
Hydrolysis from control polymer sample contributes ˜1% towards cross-linking density and adjusted for all calculations. Crosslinking densities for all other conjugates were calculated based on the above method and summarized below: […]

[6] = Zeta potential measurement; assay type: physicochemical; details: 1 mg/mL, phosphate buffer pH 7.4
Procedure: as §1

Molecule | Cell viability (HeLa cells) | Size, nm (hydrodynamic diameter, DLS) [1] | Size, nm (hydrodynamic diameter, DLS) ([1]; listed as native CytC) | Order of overall kinetics of protein release [2] | Loading capacity (LC), % [3] | Amount of protein encapsulated, μg (Initial dose = 1 mg) [3] | # of Protein per PPC particle [4] | Crosslinking density, % [5] | Zeta potential, mV [6]
cytochrome C | lack of toxicity | 4.3 ± 0.1 nm | ~4 nm | CytC<RNaseA<Lys |  |  |  |  | 
lysozyme |  | 3.6 ± 0.4 nm |  | CytC<RNaseA<Lys |  |  |  |  | 
B1 |  | 3.3 ± 0.2 nm |  | CytC<RNaseA<Lys |  |  |  |  | 
B2 |  | 9.1 ± 0.1 nm |  |  | 5.6% | 558 µg | 16 | 5.1% | −8.2 ± 0.7 mV
B3 |  | 9.5 ± 0.1 nm |  |  | 5.5% | 553 µg | 18 | 5.1% | −8.7 ± 0.7 mV
